{"source": "patent US20210246166A1", "about": "(Bayer, published 2021)", "note": "Bridge positions count the residues as written; N and C are the ends. Square brackets hold non-standard residues; d marks the D form. Ends that are not written are not given here. Pro(4-spirocPr) = O=C(O)[C@@H]1CC2(CC2)CN1; Oic = O=C(O)[C@@H]1C[C@@H]2CCCC[C@@H]2N1; PEG8 = NCCOCCOCCOCCOCCOCCOCCOCCOCCC(=O)O; Phe(2-Br) = N[C@@H](Cc1ccccc1Br)C(=O)O; NMeI = CC[C@H](C)[C@H](NC)C(=O)O; tBuAla = CC(C)(C)C[C@H](N)C(=O)O; Pen = CC(C)(S)[C@H](N)C(=O)O; NMeC = CN[C@@H](CS)C(=O)O; Orn = NCCC[C@H](N)C(=O)O; Abu = CC[C@H](N)C(=O)O; Sar = CNCC(=O)O"}
{"molecular_target": "T1, recombinant rat MASP1 active protease (amino acids 302-704, C-terminal His Tag) (rat, UniProt Q8CHN8 302-704)", "T1 sequence": "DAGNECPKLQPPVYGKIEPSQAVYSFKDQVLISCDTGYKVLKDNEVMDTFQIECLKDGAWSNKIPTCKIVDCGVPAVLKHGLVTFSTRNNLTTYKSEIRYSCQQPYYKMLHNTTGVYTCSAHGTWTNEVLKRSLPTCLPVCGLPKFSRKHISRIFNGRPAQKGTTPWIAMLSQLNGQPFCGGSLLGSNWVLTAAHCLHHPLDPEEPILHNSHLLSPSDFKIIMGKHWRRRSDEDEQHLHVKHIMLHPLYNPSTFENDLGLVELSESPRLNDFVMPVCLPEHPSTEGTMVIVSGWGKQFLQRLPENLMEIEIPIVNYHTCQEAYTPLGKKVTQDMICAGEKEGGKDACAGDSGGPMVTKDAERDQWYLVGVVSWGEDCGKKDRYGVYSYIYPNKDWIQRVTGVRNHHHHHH", "assay": "cell-based or functional assay", "units": {"rat MASP1 IC50": "nM"}}
{"binder": "AICSRS[tBuAla]PPI[NMeC]IPD-NH2 (disulfide 3-11; N-terminus assumed; SMILES CC[C@H](C)[C@H](NC(=O)[C@H](C)N)C(=O)N[C@H]1CSSC[C@@H](C(=O)N[C@H](C(=O)N2CCC[C@H]2C(=O)N[C@@H](CC(=O)O)C(N)=O)[C@@H](C)CC)N(C)C(=O)[C@H]([C@@H](C)CC)NC(=O)[C@@H]2CCCN2C(=O)[C@@H]2CCCN2C(=O)[C@H](CC(C)(C)C)NC(=O)[C@H](CO)NC(=O)[C@H](CCCNC(=N)N)NC(=O)[C@H](CO)NC1=O)", "note": "[Example 48: AIC+SRS-((tBu)A)-PPI-((N-Me)C)+IPD-NH2]", "rat MASP1 IC50": 51.5}
{"binder": "[Sar]ICSRS[tBuAla]PPI[Pen]IP-{PEG8-NH2} (disulfide 3-11)", "note": "[Example 74: ((N-Me)G)-IC+SRS-((tBu)A)-PPI-(Pen)+IP-(PEG8(28 atoms))-NH2]", "rat MASP1 IC50": 71}
{"binder": "AICSRS[tBuAla]PPI[NMeC]IPD-OH (disulfide 3-11; N-terminus assumed; SMILES CC[C@H](C)[C@H](NC(=O)[C@H](C)N)C(=O)N[C@H]1CSSC[C@@H](C(=O)N[C@H](C(=O)N2CCC[C@H]2C(=O)N[C@@H](CC(=O)O)C(=O)O)[C@@H](C)CC)N(C)C(=O)[C@H]([C@@H](C)CC)NC(=O)[C@@H]2CCCN2C(=O)[C@@H]2CCCN2C(=O)[C@H](CC(C)(C)C)NC(=O)[C@H](CO)NC(=O)[C@H](CCCNC(=N)N)NC(=O)[C@H](CO)NC1=O)", "note": "[Example 86: AIC+SRS-((tBu)A)-PPI-((N-Me)C)+IPD-OH]", "rat MASP1 IC50": 16}
{"binder": "LICSRS[tBuAla]PPI[NMeC]I-NH2 (disulfide 3-11; N-terminus assumed; SMILES CC[C@H](C)[C@H](NC(=O)[C@@H]1CSSC[C@H](NC(=O)[C@@H](NC(=O)[C@@H](N)CC(C)C)[C@@H](C)CC)C(=O)N[C@@H](CO)C(=O)N[C@@H](CCCNC(=N)N)C(=O)N[C@@H](CO)C(=O)N[C@@H](CC(C)(C)C)C(=O)N2CCC[C@H]2C(=O)N2CCC[C@H]2C(=O)N[C@@H]([C@@H](C)CC)C(=O)N1C)C(N)=O)", "note": "[Example 65: LIC+SRS-((tBu)A)-PPI-((N-Me)C)+I-NH2]", "rat MASP1 IC50": 7.2}
{"binder": "Ac-G[NMeI]CSRSLPPICIPD-OH (disulfide 3-11; SMILES CC[C@H](C)[C@@H]1NC(=O)[C@@H]2CCCN2C(=O)[C@@H]2CCCN2C(=O)[C@H](CC(C)C)NC(=O)[C@H](CO)NC(=O)[C@H](CCCNC(=N)N)NC(=O)[C@H](CO)NC(=O)[C@@H](NC(=O)[C@H]([C@@H](C)CC)N(C)C(=O)CNC(C)=O)CSSC[C@@H](C(=O)N[C@H](C(=O)N2CCC[C@H]2C(=O)N[C@@H](CC(=O)O)C(=O)O)[C@@H](C)CC)NC1=O)", "note": "[Example 59: Ac-G-((N-Me)I)-C+SRSLPPIC+IPD-OH]", "rat MASP1 IC50": 250}
{"binder": "[Orn]ICSRS[tBuAla]PPI[NMeC]IPD-NH2 (disulfide 3-11; N-terminus assumed; SMILES CC[C@H](C)[C@H](NC(=O)[C@@H](N)CCCN)C(=O)N[C@H]1CSSC[C@@H](C(=O)N[C@H](C(=O)N2CCC[C@H]2C(=O)N[C@@H](CC(=O)O)C(N)=O)[C@@H](C)CC)N(C)C(=O)[C@H]([C@@H](C)CC)NC(=O)[C@@H]2CCCN2C(=O)[C@@H]2CCCN2C(=O)[C@H](CC(C)(C)C)NC(=O)[C@H](CO)NC(=O)[C@H](CCCNC(=N)N)NC(=O)[C@H](CO)NC1=O)", "note": "[Example 77: (Orn)-IC+SRS-((tBu)A)-PPI-((N-Me)C)+IPD-NH2]", "rat MASP1 IC50": 66}
{"binder": "[Orn]ICSRS[tBuAla]PPI[NMeC]IPD-NH2 (disulfide 3-11; also: HCl salt)", "note": "[Example 78: (Orn)-IC+SRS-((tBu)A)-PPI-((N-Me)C)+IPD-NH2 (HCl salt)]", "rat MASP1 IC50": 48}
{"binder": "KICSRS[tBuAla]PPI[NMeC]I-NH2 (disulfide 3-11; N-terminus assumed; SMILES CC[C@H](C)[C@H](NC(=O)[C@@H]1CSSC[C@H](NC(=O)[C@@H](NC(=O)[C@@H](N)CCCCN)[C@@H](C)CC)C(=O)N[C@@H](CO)C(=O)N[C@@H](CCCNC(=N)N)C(=O)N[C@@H](CO)C(=O)N[C@@H](CC(C)(C)C)C(=O)N2CCC[C@H]2C(=O)N2CCC[C@H]2C(=O)N[C@@H]([C@@H](C)CC)C(=O)N1C)C(N)=O)", "note": "[Example 79: KIC+SRS-((tBu)A)-PPI-((N-Me)C)+I-NH2]", "rat MASP1 IC50": 85}
{"binder": "AICSRS[tBuAla]PPI[Pen]IPD-NH2 (disulfide 3-11; N-terminus assumed; SMILES CC[C@H](C)[C@H](NC(=O)[C@H](C)N)C(=O)N[C@H]1CSSC(C)(C)[C@@H](C(=O)N[C@H](C(=O)N2CCC[C@H]2C(=O)N[C@@H](CC(=O)O)C(N)=O)[C@@H](C)CC)NC(=O)[C@H]([C@@H](C)CC)NC(=O)[C@@H]2CCCN2C(=O)[C@@H]2CCCN2C(=O)[C@H](CC(C)(C)C)NC(=O)[C@H](CO)NC(=O)[C@H](CCCNC(=N)N)NC(=O)[C@H](CO)NC1=O)", "note": "[Example 98: AIC+SRS-((tBu)A)-PPI-(Pen)+IPD-NH2]", "rat MASP1 IC50": 17}
{"binder": "AICSRSLP[rel‑(1R,3R,5R,6R)‑6‑(Trifluoromethyl)‑2‑azabicyclo(3.1.0)hexane‑3‑carboxylic acid]ICIPD-NH2 (disulfide 3-11)", "rat MASP1 IC50": 140}
{"binder": "[Sar]ICSRS[tBuAla]PPI[Pen]IP-{PEG4‑CH2CO2H (15 atoms)-NH2} (disulfide 3-11)", "note": "[Example 73: ((N-Me)G)-IC+SRS-((tBu)A)-PPI-(Pen)+IP-(PEG4-CH2CO2H (15 atoms))-NH2]", "rat MASP1 IC50": 43}
{"binder": "[Abu]ICSRS[tBuAla]PPICIPD-NH2 (disulfide 3-11; N-terminus assumed; SMILES CC[C@H](N)C(=O)N[C@H](C(=O)N[C@H]1CSSC[C@@H](C(=O)N[C@H](C(=O)N2CCC[C@H]2C(=O)N[C@@H](CC(=O)O)C(N)=O)[C@@H](C)CC)NC(=O)[C@H]([C@@H](C)CC)NC(=O)[C@@H]2CCCN2C(=O)[C@@H]2CCCN2C(=O)[C@H](CC(C)(C)C)NC(=O)[C@H](CO)NC(=O)[C@H](CCCNC(=N)N)NC(=O)[C@H](CO)NC1=O)[C@@H](C)CC)", "note": "[Example 66: (Abu)-IC+SRS-((tBu)A)-PPIC+IPD-NH2]", "rat MASP1 IC50": 70}
{"binder": "AICSRS[Phe(2-Br)]PPI[Pen]IPD-NH2 (disulfide 3-11; N-terminus assumed; SMILES CC[C@H](C)[C@H](NC(=O)[C@H](C)N)C(=O)N[C@H]1CSSC(C)(C)[C@@H](C(=O)N[C@H](C(=O)N2CCC[C@H]2C(=O)N[C@@H](CC(=O)O)C(N)=O)[C@@H](C)CC)NC(=O)[C@H]([C@@H](C)CC)NC(=O)[C@@H]2CCCN2C(=O)[C@@H]2CCCN2C(=O)[C@H](Cc2ccccc2Br)NC(=O)[C@H](CO)NC(=O)[C@H](CCCNC(=N)N)NC(=O)[C@H](CO)NC1=O)", "note": "[Example 104: AIC+SRS-((2-Bromo)F)-PPI-(Pen)+IPD-NH2]", "rat MASP1 IC50": 77}
{"binder": "AICSRS[tBuAla]P[Pro(4-spirocPr)]I[Pen]IPD-NH2 (disulfide 3-11; N-terminus assumed; SMILES CC[C@H](C)[C@H](NC(=O)[C@H](C)N)C(=O)N[C@H]1CSSC(C)(C)[C@@H](C(=O)N[C@H](C(=O)N2CCC[C@H]2C(=O)N[C@@H](CC(=O)O)C(N)=O)[C@@H](C)CC)NC(=O)[C@H]([C@@H](C)CC)NC(=O)[C@@H]2CC3(CC3)CN2C(=O)[C@@H]2CCCN2C(=O)[C@H](CC(C)(C)C)NC(=O)[C@H](CO)NC(=O)[C@H](CCCNC(=N)N)NC(=O)[C@H](CO)NC1=O)", "note": "[Example 45: AIC+SRS-((tBu)A)-P-((6S)-5-Azaspiro[2.4]heptane-6-carboxylic acid)-I-(Pen)+IPD-NH2]", "rat MASP1 IC50": 40}
{"binder": "SICSRS[tBuAla]PPI[NMeC]I-NH2 (disulfide 3-11; N-terminus assumed; SMILES CC[C@H](C)[C@H](NC(=O)[C@@H]1CSSC[C@H](NC(=O)[C@@H](NC(=O)[C@@H](N)CO)[C@@H](C)CC)C(=O)N[C@@H](CO)C(=O)N[C@@H](CCCNC(=N)N)C(=O)N[C@@H](CO)C(=O)N[C@@H](CC(C)(C)C)C(=O)N2CCC[C@H]2C(=O)N2CCC[C@H]2C(=O)N[C@@H]([C@@H](C)CC)C(=O)N1C)C(N)=O)", "note": "[Example 103: SIC+SRS-((tBu)A)-PPI-((N-Me)C)+I-NH2]", "rat MASP1 IC50": 110}
{"binder": "[Orn]ICSRS[tBuAla]PPI[Pen]IPD-NH2 (disulfide 3-11; N-terminus assumed; SMILES CC[C@H](C)[C@H](NC(=O)[C@@H](N)CCCN)C(=O)N[C@H]1CSSC(C)(C)[C@@H](C(=O)N[C@H](C(=O)N2CCC[C@H]2C(=O)N[C@@H](CC(=O)O)C(N)=O)[C@@H](C)CC)NC(=O)[C@H]([C@@H](C)CC)NC(=O)[C@@H]2CCCN2C(=O)[C@@H]2CCCN2C(=O)[C@H](CC(C)(C)C)NC(=O)[C@H](CO)NC(=O)[C@H](CCCNC(=N)N)NC(=O)[C@H](CO)NC1=O)", "note": "[Example 49: (Orn)-IC+SRS-((tBu)A)-PPI-(Pen)+IPD-NH2]", "rat MASP1 IC50": 60}
{"binder": "AICSRS[tBuAla]P[Oic]ICI-NH2 (disulfide 3-11; N-terminus assumed; SMILES CC[C@H](C)[C@H](NC(=O)[C@@H]1CSSC[C@H](NC(=O)[C@@H](NC(=O)[C@H](C)N)[C@@H](C)CC)C(=O)N[C@@H](CO)C(=O)N[C@@H](CCCNC(=N)N)C(=O)N[C@@H](CO)C(=O)N[C@@H](CC(C)(C)C)C(=O)N2CCC[C@H]2C(=O)N2[C@@H](C[C@@H]3CCCC[C@@H]32)C(=O)N[C@@H]([C@@H](C)CC)C(=O)N1)C(N)=O)", "note": "[Example 99: AIC+SRS-((tBu)A)-P-(Oic)-IC+I-NH2]", "rat MASP1 IC50": 220}
